The labels stand for the following.
B1: C0C(PIE7-GK)3 (peptide)
peptide 1: Ac-G[dA][dC][dD][dY][dP][dE][dW][dQ][dW][dL][dC][dA][dA]G[dK]-NH2
peptide 2: Ac-G[dA][dC][dD][dY][dP][dE][dW][dQ][dW][dL][dC][dA][dA]G[dK][dK]-NH2
modifications: disulfide I:3-I:12, II:3-II:12 (inferred); also: trimer, C-terminal Lys residues linked by zero length spacers
B2: N0N(PIE7)2 (peptide)
peptide: Ac-[dK]G[dA][dC][dD][dY][dP][dE][dW][dQ][dW][dL][dC][dA][dA]-NH2
modifications: disulfide 4-13 (inferred); also: dimer, N- to N-terminal link by zero length spacer
B3: N0C(PIE7)2 (peptide)
peptide: Ac-[dK]G[dA][dC][dD][dY][dP][dE][dW][dQ][dW][dL][dC][dA][dA]-NH2
modifications: disulfide 4-13 (inferred); also: dimer linked N- to C-terminal by zero-length spacer
B4: C5C(PIE7-GK)3 (peptide)
peptide 1: Ac-G[dA][dC][dD][dY][dP][dE][dW][dQ][dW][dL][dC][dA][dA]G[dK]-NH2
peptide 2: Ac-G[dA][dC][dD][dY][dP][dE][dW][dQ][dW][dL][dC][dA][dA]G[dK][dK]-NH2
modifications: disulfide I:3-I:12, II:3-II:12 (inferred); also: trimer: C-terminal Lys linked by PEG5 spacers
B5: PEG5-(PIE13)2 (peptide)
peptide: Ac-[dH][dP][dC][dD][dY][dP][dE][dW][dQ][dW][dL][dC]K[dL]G[dK]-NH2
modifications: disulfide 3-12 (inferred); not fully specified (residue 13); also: dimer crosslinked by PEG5 via internal Lys

Bridges are numbered along the chain shown (N, C = ends). Roman numbers before positions name the chains, in order. [ ]: non-standard residue; d: D form.

In one test the target is HIV-1 HXB2 envelope glycoprotein gp41 (N-trimer of the prehairpin intermediate) (HIV-1 strain HXB2, UniProt P04578 512-856). Description: cell-based or functional assay.
For the molecule Ac-[dK]G[dA][dC][dD][dY][dP][dE][dW][dQ][dW][dL][dC][dA][dA]-NH2 (disulfide 4-13 (inferred); also: dimer linked N- to C-terminal by PEG9 spacer) [N9C(PIE7)2], the “IC50, HXB2 pseudovirion entry” value stood at 0.00033 µM.
Consider B1, for which the “IC50, HXB2 pseudovirion entry” value came to 0.00012 µM.
As for Ac-G[dA][dC][dD][dY][dP][dE][dW][dQ][dW][dL][dC][dA][dA]G[dK]-NH2 (disulfide 3-12 (inferred); also: dimer, C- to C-terminal link by PEG5 spacer) [C5C(PIE7-GK)2], the “IC50, HXB2 pseudovirion entry” value worked out at 0.00036 µM.
On the same count and under the same terms, then Ac-G[dA][dC][dD][dY][dP][dE][dW][dQ][dW][dL][dC][dA][dA]G[dK]-NH2 (disulfide 3-12 (inferred); also: linked to trifunctional crosslinker LC-TSAT) [PIE7-GK long claw], with 0.00012 µM; and Ac-[dK]G[dA][dC][dD][dY][dP][dE][dW][dR][dW][dL][dC][dA][dA][dA]-NH2 (disulfide 4-13 (inferred)) [PIE2-AAA], with 0.0014 µM.
For Ac-[dH][dP][dC][dD][dY][dP][dE][dW][dQ][dW][dL][dC][dK][dL]G[dK]-NH2 (disulfide 3-12 (inferred)) [PIE13], the “IC50, HXB2 pseudovirion entry” value came out at 0.041 µM.
For the molecule Ac-G[dA][dC][dD][dY][dP][dE][dW][dQ][dW][dL][dC][dA][dA]G[dK]-NH2 (disulfide 3-12 (inferred)) [PIE7-GK], the “IC50, HXB2 pseudovirion entry” value was 0.39 µM.
Still for that read-out and setting: then Ac-[dK]G[dA][dC][dD][dY][dK][dE][dW][dQ][dW][dL][dC][dA][dA]-NH2 (disulfide 4-13 (inferred)) [PIE8], with 0.0017 µM; and Ac-[dH][dP][dC][dD][dY][dP][dE][dW][dQ][dW][dL][dC][dR][dL]G[dK]-NH2 (disulfide 3-12 (inferred)) [PIE14], with 0.033 µM; and B2, with 0.0008 µM.
Same read-out and setting: then Ac-[dK]G[dA][dC][dD][dY][dP][dE][dW][dQ][dW][dL][dC][dA][dA]-NH2 (disulfide 4-13 (inferred); also: dimer, N- to N-terminal link by PEG5 spacer) [N5N(PIE7)2], with 0.0011 µM; and B3, with 0.00053 µM; and Ac-[dK]G[dA][dC][dD][dY][dP][dE][dW][dQ][dW][dL][dC][dA][dA]-NH2 (disulfide 4-13 (inferred)) [PIE7], with 0.62 µM.
On the same count and under the same terms, next, Ac-G[dA][dC][dD][dY][dP][dE][dW][dQ][dW][dL][dC][dA][dA]G[dK][dK]-NH2 (disulfide 3-12 (inferred)) [PIE7-GKK]: 0.38 µM; Ac-[dK]G[dA][dC][dD][dY][dP][dE][dW][dQ][dW][dL][dC][dA][dA]-NH2 (disulfide 4-13 (inferred); also: dimer linked N- to C-terminal by PEG5 spacer) [N5C(PIE7)2]: 0.00058 µM.
Ac-[dK][dK]G[dA][dC][dE][dS][dP][dE][dW][dR][dW][dL][dC][dA][dA]-NH2 (disulfide 5-14 (inferred)) [2K-PIE1]: the “IC50, HXB2 pseudovirion entry” value stood at 0.0022 µM.
On the same count and under the same terms, next, Ac-[dK][dK]G[dA][dC][dE][dL][dL]G[dW][dE][dW][dA][dW][dL][dC][dA][dA]-NH2 (disulfide 5-16 (inferred)) [D10-p5]: 0.0095 µM; Ac-G[dA][dC][dD][dY][dP][dE][dW][dQ][dW][dL][dC][dA][dA]G[dK]-NH2 (disulfide 3-12 (inferred); also: PEG4 attached at the C-terminus) [PIE7-GK-PEG4]: 0.35 µM; Ac-[dK]G[dA][dC][dD][dY][dP][dE][dW][dQ][dW][dL][dC][dA][dA]-NH2 (disulfide 4-13 (inferred); also: trimer linked by PEG9 spacers) [N9N(PIE7)3]: 0.00025 µM.
Still for that read-out and setting: then B4, with 0.00013 µM; and Ac-[dH][dA][dC][dD][dY][dP][dE][dW][dQ][dW][dL][dC][dE][dL]G[dK]-NH2 (disulfide 3-12 (inferred)) [PIE15], with 0.067 µM; and Ac-G[dA][dC][dD][dY][dP][dE][dW][dQ][dW][dL][dC][dA][dA]G[dK]-NH2 (disulfide 3-12 (inferred); also: dimer, C- to C-terminal link by PEG9 spacer) [C9C(PIE7-GK)2], with 0.00035 µM.
Turning to Ac-[dK][dK]G[dA][dC][dD][dY][dP][dE][dW][dR][dW][dL][dC][dA][dA]-NH2 (disulfide 5-14 (inferred)) [2K-PIE2], the “IC50, HXB2 pseudovirion entry” value is 0.0026 µM.

The target of another test is HIV-1 JRFL envelope glycoprotein gp41 (N-trimer of the prehairpin intermediate) (HIV-1 strain JRFL). Description: cell-based or functional assay.
On to Ac-[dK]G[dA][dC][dD][dY][dP][dE][dW][dR][dW][dL][dC][dA][dA]-NH2 (disulfide 4-13 (inferred)) [PIE2], for which the “IC50, JRFL pseudovirion entry” value was determined as 66 µM.
Ac-[dK]G[dA][dC][dD][dY][dP][dE][dW][dQ][dW][dL][dC][dA][dA]-NH2 (disulfide 4-13 (inferred); also: dimer linked N- to C-terminal by PEG9 spacer) [N9C(PIE7)2]: the “IC50, JRFL pseudovirion entry” value was 0.31 µM.
The same measure, in the same setting: then B1, with 0.0161 µM; and Ac-G[dA][dC][dD][dY][dP][dE][dW][dQ][dW][dL][dC][dA][dA]G[dK]-NH2 (disulfide 3-12 (inferred); also: dimer, C- to C-terminal link by PEG5 spacer) [C5C(PIE7-GK)2], with 0.2 µM.
On to Ac-[dK]G[dA][dC][dD][dY][dP][dE][dW][dQ][dW][dL][dC][dA][dA]G[dK]-NH2 (disulfide 4-13 (inferred)) [K-PIE7-GK], for which the “IC50, JRFL pseudovirion entry” value turned out to be 14.8 µM.
Consider Ac-G[dA][dC][dD][dY][dP][dE][dW][dQ][dW][dL][dC][dA][dA]G[dK]-NH2 (disulfide 3-12 (inferred); also: linked to trifunctional crosslinker LC-TSAT) [PIE7-GK long claw], for which the “IC50, JRFL pseudovirion entry” value worked out at 0.0206 µM.
For the molecule Ac-[dH][dP][dC][dD][dY][dP][dE][dW][dQ][dW][dL][dC][dK][dL]G[dK]-NH2 (disulfide 3-12 (inferred)) [PIE13], the “IC50, JRFL pseudovirion entry” value is 1.47 µM.
Consider Ac-G[dA][dC][dD][dY][dP][dE][dW][dQ][dW][dL][dC][dA][dA]G[dK]-NH2 (disulfide 3-12 (inferred)) [PIE7-GK], for which the “IC50, JRFL pseudovirion entry” value was found to be 15.8 µM.
The same measure, in the same setting: next, Ac-[dK]G[dA][dC][dD][dY][dK][dE][dW][dQ][dW][dL][dC][dA][dA]-NH2 (disulfide 4-13 (inferred)) [PIE8]: about 110 µM; Ac-[dH][dP][dC][dD][dY][dP][dE][dW][dQ][dW][dL][dC][dR][dL]G[dK]-NH2 (disulfide 3-12 (inferred)) [PIE14]: 1.05 µM.
For Ac-[dH][dP][dC][dD][dY][dP][dE][dW][dQ][dW][dL][dC][dE][dL]G[dK]-NH2 (disulfide 3-12 (inferred); also: dimer, C- to C-terminal link by PEG5 spacer) [C5C(PIE12)2], the “IC50, JRFL pseudovirion entry” value came out at 0.014 µM.
On the same count and under the same terms, then B2, with 1.09 µM; and Ac-[dK]G[dA][dC][dD][dY][dP][dE][dW][dQ][dW][dL][dC][dA][dA]-NH2 (disulfide 4-13 (inferred); also: dimer, N- to N-terminal link by PEG5 spacer) [N5N(PIE7)2], with 1.41 µM.
Still for that read-out and setting: then B3, with 0.4 µM.
Same read-out and setting: then Ac-[dK]G[dA][dC][dD][dY][dP][dE][dW][dQ][dW][dL][dC][dA][dA]-NH2 (disulfide 4-13 (inferred)) [PIE7], with 24 µM; and Ac-G[dA][dC][dD][dY][dP][dE][dW][dQ][dW][dL][dC][dA][dA]G[dK][dK]-NH2 (disulfide 3-12 (inferred)) [PIE7-GKK], with 19.1 µM.
For Ac-[dK]G[dA][dC][dD][dY][dP][dE][dW][dQ][dW][dL][dC][dA][dA]-NH2 (disulfide 4-13 (inferred); also: dimer linked N- to C-terminal by PEG5 spacer) [N5C(PIE7)2], the “IC50, JRFL pseudovirion entry” value amounted to 0.3 µM.
Take Ac-[dK][dK]G[dA][dC][dE][dS][dP][dE][dW][dR][dW][dL][dC][dA][dA]-NH2 (disulfide 5-14 (inferred)) [2K-PIE1]: the “IC50, JRFL pseudovirion entry” value is over 100 µM.
For B5, the “IC50, JRFL pseudovirion entry” value was found to be 0.015 µM.
On the same count and under the same terms, next, Ac-[dK][dK]G[dA][dC][dE][dL][dL]G[dW][dE][dW][dA][dW][dL][dC][dA][dA]-NH2 (disulfide 5-16 (inferred)) [D10-p5]: over 25 µM.
The same measure, in the same setting: next, Ac-G[dA][dC][dD][dY][dP][dE][dW][dQ][dW][dL][dC][dA][dA]G[dK]-NH2 (disulfide 3-12 (inferred); also: PEG4 attached at the C-terminus) [PIE7-GK-PEG4]: 13.1 µM; Ac-[dK]G[dA][dC][dD][dY][dP][dE][dW][dQ][dW][dL][dC][dA][dA]-NH2 (disulfide 4-13 (inferred); also: trimer linked by PEG9 spacers) [N9N(PIE7)3]: 0.22 µM.
As to B4, the “IC50, JRFL pseudovirion entry” value is 0.0067 µM.
The same measure, in the same setting: then Ac-[dH][dA][dC][dD][dY][dP][dE][dW][dQ][dW][dL][dC][dE][dL]G[dK]-NH2 (disulfide 3-12 (inferred)) [PIE15], with 1.45 µM; and Ac-G[dA][dC][dD][dY][dP][dE][dW][dQ][dW][dL][dC][dA][dA]G[dK]-NH2 (disulfide 3-12 (inferred); also: dimer, C- to C-terminal link by PEG9 spacer) [C9C(PIE7-GK)2], with 0.22 µM.

For the origin of these results see US20140323392A1 (UNIVERSITY OF UTAH RESEARCH FOUNDATION, published 2014).
